Experimental data taken from article PMC11720163, “Position-Dependent Effects of AP Sites Within an hTERT Promoter G-Quadruplex Scaffold on Quadruplex Stability and Repair Activity of the APE1 Enzyme”.

B1: 96-G4 (structured_DNA)
DNA: GCCGCGGAAAGGAAGGGGAGGGGCTGGGAGGGCCCGGAGGGGGCTGGGCCGGGGACCCGGGAGGGGTCGGGACGGGGCGGGGTCCGCGCGGAGGAG

Tests used:
[1] = molecular target: APE1 (human AP endonuclease 1), His-tagged (Homo sapiens) (UniProt P27695); experiment: BLI; conditions: 1 mM Ca2+, N = F, BLI: 20 mM Tris-HCl pH 7.5, 100 mM KCl, 1 mM CaCl2, DNA 10-100 nM, temperature not stated, DNA annealed with at least 20 mM KCl
[2] = molecular target: APE1 (human AP endonuclease 1), His-tagged (Homo sapiens, UniProt P27695 1-318); experiment: BLI; 1 mM Ca2+; BLI: 20 mM Tris-HCl pH 7.5, 100 mM KCl, 1 mM CaCl2; DNA 10-100 nM; temperature not stated; DNA annealed with at least 20 mM KCl; conditions: protein: recombinant; label: 3'-TAMRA; three stacked intramolecular parallel G4s
Sequence of APE1 (human AP endonuclease 1), His-tagged (P27695 whole entry): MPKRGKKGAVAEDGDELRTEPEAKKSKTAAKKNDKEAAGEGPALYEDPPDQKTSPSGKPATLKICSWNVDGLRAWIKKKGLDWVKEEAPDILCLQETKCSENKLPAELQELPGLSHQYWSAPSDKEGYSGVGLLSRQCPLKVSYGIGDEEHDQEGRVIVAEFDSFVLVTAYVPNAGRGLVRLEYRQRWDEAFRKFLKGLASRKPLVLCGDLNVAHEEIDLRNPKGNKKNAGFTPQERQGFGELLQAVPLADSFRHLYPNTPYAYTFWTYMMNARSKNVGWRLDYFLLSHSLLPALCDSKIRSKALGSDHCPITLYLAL

Sequence of APE1 (human AP endonuclease 1), His-tagged (Homo sapiens) (P27695 whole entry): as above

| Molecule | Kd ([1]; stable AP site analog) | further results |
| --- | --- | --- |
| GCCGCGGAAAGGAAGGGGAGGGGCTGGGAGGGCCCGGAGGGGGCTGGGCCGGGGACCCGGNAGGGGTCGGGACGGGGCGGGGTCCGCGCGGAGGAG [96-G250F] | 3 nM | – |
| ACCTGGATGCCTATAGGGCGAATTGGGTACCGCTGAATTGCACTGGACTNGATCCTCGATGATCCTAAGCTAAGCTTCAGCTCCAGCCTAAGCCTG [96-RF] | – | Kd fold-increase relative to G4 substrates (fold higher Kd than G4 substrates) ([1]; stable AP site analog): 10 |
| GCCGCGGAAAGGAAGGGGAGGGGCTGGGAGGGCCCGGAGGGGGCTGGGCCGNGGACCCGGGAGGGGTCGGGACGGGGCGGGGTCCGCGCGGAGGAG [96-G242F] | 3 nM | – |
| GCCGCGGAAAGGAAGGGGAGGGGCTGGGAGGGCCCGGANGGGGCTGGGCCGGGGACCCGGGAGGGGTCGGGACGGGGCGGGGTCCGCGCGGAGGAG [96-G228F] | 3 nM | – |
| GCCGCGGAAAGGAAGGGGAGGGGCTGGGAGGGCCCGGAGGGGGCTGGGCCGGNGACCCGGGAGGGGTCGGGACGGGGCGGGGTCCGCGCGGAGGAG [96-G243F] | 3 nM | – |
| GCCGCGGAAAGGAAGGGGAGGGGCTGGGAGGGCCCGGAGGGGGCTGGGCCGNNGACCCGGGAGGGGTCGGGACGGGGCGGGGTCCGCGCGGAGGAG [96-G242,243F] | – | Kd ([1]; stable AP site analog (two)): 3 nM |
| B1 | – | Kd [2]: 4.2 ± 1.4 nM |
